Reference: US20020111475A1

The substances below were run against flt3 on murine WWF7 cells (assay: cell-based or functional assay).

Sp.Ac. MUT / Sp.Ac. WT (WWF7 cell proliferation units/ml per flt3-L ng/ml by ELISA, yeast supernatant) (ratio to wild type) | specific activity of WT protein (WWF7 cell proliferation, yeast supernatant), averaged over 11 independent assays | Substance
0 |  | flt3-L mutant F81S (from UniProt P49771 24-179) (ligand)
0 |  | flt3-L mutant H8R (from UniProt P49771 24-179) (ligand)
2.16 |  | flt3-L mutant Q122R (from UniProt P49771 24-179) (ligand)
0.58 |  | flt3-L mutant V34L (from UniProt P49771 24-235) (ligand)
2.19 |  | flt3-L mutant W118R (from UniProt P49771 24-179) (ligand)

Continued, substance first:

Substance | Sp.Ac. MUT / Sp.Ac. WT (WWF7 cell proliferation units/ml per flt3-L ng/ml by ELISA, yeast supernatant) (ratio to wild type) | specific activity of WT protein (WWF7 cell proliferation, yeast supernatant), averaged over 11 independent assays
flt3-L mutant H8Y (from UniProt P49771 24-179) (ligand) | 1.71 | 
flt3-L mutant I11Y (from UniProt P49771 24-179) (ligand) | 0 | 
flt3-L mutant K84E (from UniProt P49771 24-179) (ligand) | 2.88 | 
flt3-L mutant K84T (from UniProt P49771 24-235) (ligand) | 1.63 | 
flt3-L mutant K116E (from UniProt P49771 24-179) (ligand) | 0.02 | 
flt3-L mutant L26F (from UniProt P49771 24-235) (ligand) | 0.69 | 
flt3-L mutant L27P (from UniProt P49771 24-179) (ligand) | 0.07 | 
wild type flt3-L (yeast-derived recombinant human flt3 Ligand) (from UniProt P49771 24-179) | 1 | 0.95 units/ng
